# IntAct's records for PubMed 18728196
# B1: Anti-sigma factor RshA (Mycobacterium tuberculosis (strain ATCC 25618 / P9WJ69 (parent)
# chain: MSENCGPTDAHADHDDSHGGMGCAEVIAEVWTLLDGECTPETRERLRRHLEACPGCLRHYGLEERIKALIGTKCRGDRAPEGLRERLRLEIRRTTIIRGGP
# Variants of: B1
# Settings: with pstp_myctu pstP
row,Variant,effect of a mutation on the interaction
1,T94A,disrupting interaction
